Here are results for two proteins from publication PMC8320243 (Circulation research, 2021).

This series concerns the molecule itself. In words: cross-linking.

Usually stoichiometry N stands for the number of molecules, sites or subunits per partner or assembly.

B1: cMyc-tagged RyR2 N-terminus (NT, residues 1-906), wild type (domain or fragment, UniProt Q92736 1-906, looked up)
chain: MADGGEGEDEIQFLRTDDEVVLQCTATIHKEQQKLCLAAEGFGNRLCFLESTSNSKNVPPDLSICTFVLEQSLSVRALQEMLANTVEKSEGQVDVEKWKFMMKTAQGGGHRTLLYGHAILLRHSYSGMYLCCLSTSRSSTDKLAFDVGLQEDTTGEACWWTIHPASKQRSEGEKVRVGDDLILVSVSSERYLHLSYGNGSLHVDAAFQQTLWSVAPISSGSEAAQGYLIGGDVLRLLHGHMDECLTVPSGEHGEEQRRTVHYEGGAVSVHARSLWRLETLRVAWSGSHIRWGQPFRLRHVTTGKYLSLMEDKNLLLMDKEKADVKSTAFTFRSSKEKLDVGVRKEVDGMGTSEIKYGDSVCYIQHVDTGLWLTYQSVDVKSVRMGSIQRKAIMHHEGHMDDGISLSRSQHEESRTARVIRSTVFLFNRFIRGLDALSKKAKASTVDLPIESVSLSLQDLIGYFHPPDEHLEHEDKQNRLRALKNRQNLFQEEGMINLVLECIDRLHVYSSAAHFADVAGREAGESWKSILNSLYELLAALIRGNRKNCAQFSGSLDWLISRLERLEASSGILEVLHCVLVESPEALNIIKEGHIKSIISLLDKHGRNHKVLDVLCSLCVCHGVAVRSNQHLICDNLLPGRDLLLQTRLVNHVSSMRPNIFLGVSEGSAQYKKWYYELMVDHTEPFVTAEATHLRVGWASTEGYSPYPGGGEEWGGNGVGDDLFSYGFDGLHLWSGCIARTVSSPNQHLLRTDDVISCCLDLSAPSISFRINGQPVQGMFENFNIDGLFFPVVSFSAGIKVRFLLGGRHGEFKFLPPPGYAPCYEAVLPKEKLKVEHSREYKQERTYTRDLLGPTVSLTQAAFTPIPVDTSQIVLPPHLERIREKLAENIHELWVMNKIELGWQYGP
Consider B1, for which the “stoichiometry N” value is 4.

B2: cMyc-tagged RyR2 N-terminus (NT, residues 1-906) with R420Q (domain or fragment, UniProt Q92736 1-906, looked up)
chain: MADGGEGEDEIQFLRTDDEVVLQCTATIHKEQQKLCLAAEGFGNRLCFLESTSNSKNVPPDLSICTFVLEQSLSVRALQEMLANTVEKSEGQVDVEKWKFMMKTAQGGGHRTLLYGHAILLRHSYSGMYLCCLSTSRSSTDKLAFDVGLQEDTTGEACWWTIHPASKQRSEGEKVRVGDDLILVSVSSERYLHLSYGNGSLHVDAAFQQTLWSVAPISSGSEAAQGYLIGGDVLRLLHGHMDECLTVPSGEHGEEQRRTVHYEGGAVSVHARSLWRLETLRVAWSGSHIRWGQPFRLRHVTTGKYLSLMEDKNLLLMDKEKADVKSTAFTFRSSKEKLDVGVRKEVDGMGTSEIKYGDSVCYIQHVDTGLWLTYQSVDVKSVRMGSIQRKAIMHHEGHMDDGISLSRSQHEESRTARVIQSTVFLFNRFIRGLDALSKKAKASTVDLPIESVSLSLQDLIGYFHPPDEHLEHEDKQNRLRALKNRQNLFQEEGMINLVLECIDRLHVYSSAAHFADVAGREAGESWKSILNSLYELLAALIRGNRKNCAQFSGSLDWLISRLERLEASSGILEVLHCVLVESPEALNIIKEGHIKSIISLLDKHGRNHKVLDVLCSLCVCHGVAVRSNQHLICDNLLPGRDLLLQTRLVNHVSSMRPNIFLGVSEGSAQYKKWYYELMVDHTEPFVTAEATHLRVGWASTEGYSPYPGGGEEWGGNGVGDDLFSYGFDGLHLWSGCIARTVSSPNQHLLRTDDVISCCLDLSAPSISFRINGQPVQGMFENFNIDGLFFPVVSFSAGIKVRFLLGGRHGEFKFLPPPGYAPCYEAVLPKEKLKVEHSREYKQERTYTRDLLGPTVSLTQAAFTPIPVDTSQIVLPPHLERIREKLAENIHELWVMNKIELGWQYGP
B2: the “stoichiometry N” value turned out to be 4.
